Key:
Format in all cases: cell-based
[1] = system: N2a cells overexpressing human wild-type APP-695; assay: APP CTFs by Western blot in N2a cells over-expressing APP-695; conditions: for alterations in APP CTFs: ligand controls for specificity, data not shown
Method: (§1) FIGS. 9a-f: CD40L modulates APP processing in vivo and in vitro. Fig. a: Brain homogenates were prepared from 12-month-old TgAPPsw/CD40L-deficient, control IgG-treated PSAPP, and anti-CD40L antibody-treated PSAPP animals. Representative lanes are shown from each mouse group. […] Fig. d: Cell lysates were prepared from N2a cells overexpressing human wild-type APP-695 and treated with 2 μg/mL of heat-inactivated CD40L (control) or CD40L protein (CD40 ligation) for 24 hours. […] Fig. f: A-β1-40 and A-β1-42 peptides were analyzed in conditioned media from human wild-type APP-695 overexpressing N2a cells by ELISA (n=3 for each condition). Data are represented as percentage of Aβ peptide secreted 24 hours after CD40 ligation relative to heat-inactivated CD40L treatment. […] Similar results were obtained with antibody 6687 or Chemicon polyclonal APP C-terminal antibody (data not shown).
(§2) We also employed an N2a cell line that stably over-expresses the human wild-type APP-695 transgene (Thinakaran, G., et al., “Metabolism of the Swedish’ amyloid precursor protein variant in neuro2a (N2a) cells, Evidence that cleavage at the ‘beta-secretase’ site occurs in the golgi apparatus,” J. Biol. Chem. 271, 9390-9397 (1996)). […] This effect could be alleviated by co-treatment with anti-CD40L antibody, as we detected anti-CD40L antibody in brains of treated PSAPP mice. To determine whether an incrreased ratio of β-CTF to α-CTF after CD40L treatment might be associated with secretion of Aβ, we measured the latter in conditioned transfected N2a cell media by ELISA. […] To confirm the specificity of this effect, we treated these cells with other TNF ligand superfamily members TNF-α or Fas ligand the additional control ligands transforming growth factor-β1 or neurotrophin.
Western blot (FIGS. 8-9). Mouse brains or cultured cells were lysed in ice-cold lysis buffer as described above, and an aliquot corresponding to 50 μg of total protein was electrophoretically separated using 16.5% Tris-tricine gels (Bio-Rad). Electrophoresed proteins were then transferred to PVDF membranes (Bio-Rad), washed in dH20, and blocked for 1 hour at ambient temperature in Tris-buffered saline (TBS) containing 5% (w/v) of non-fat dry milk. After blocking membranes were hybridized for 1 hour at ambient temperature with various antibodies against the C-terminus of APP or the N-terminus of Aβ. […] Densitometric analysis was performed using the Fluor-S Multilmager™ with Quantity One™ software (Bio-Rad). […] Further β- and γ-secretase activities were quantified in Tg APPsw and Tg APPsw/CD40L def. mice using available kits based on secretase-specific peptides conjugated to fluorgenic reporter molecules (R&D Systems, Minneapolis, Minn., USA). […]

[2] = system: N2a cells overexpressing human wild-type APP-695; assay: secreted Aβ ELISA in conditioned media of N2a cells over-expressing APP-695; conditions: for alterations in secretion of Aβ species: ligand controls for specificity, data not shown
Method: as §1, §2
ELISA analysis (FIGS. 8-9). Mouse brains (Control, Tg APPsw, CD40L def., and Tg APPsw/CD40L def.) were isolated under sterile conditions on ice and placed in ice-cold lysis buffer (containing 20 mM Tris, pH 7.5, 150 mM NaCl, 1 mM EDTA, 1 mM EGTA, 1% v/v Triton X-100, 2.5 mM sodium pyrophosphate, 1 mM β-glycerolphosphate, 1 mM Na3VO4, 1 µg/mL leupeptin, and 1 mM PMSF). Brains were then sonicated on ice for approximately 3 minutes, let stand for 15 minutes at 4° C., and centrifuged at 15,000 rpm for 15 minutes. Total Aβ species were detected by acid extraction of brain homogenates in 5 M guanidine buffer (Johnson-Wood, K. et al., “Amyloid precursor protein processing and A beta42 deposition in a transgenic mouse model of Alzheimer disease,” Proc. Natl. Acad. Sci USA 94, 1550-1555 (1997)), followed by a 1:10 dilution in lysis buffer. Aβ1-40 and Aβ1-42 and total Aβ (estimated by summing Aβ1-40 and Aβ1-42 values) were quantified in these samples using the Aβ1-40 and Aβ1-42 enzyme-linked immunosorbent assay (ELISA) kits (BioSource, Camarillo, Calif., USA) in accordance with the manufacurer's instruction, except that standards were diluted such that the final concentration included 0.5 M guanidine buffer. Total protein was quantified in brain homogenates using the Bio-Rad protein assay (Bio-Rad, Richmond, Calif., USA); thus, ELISA values were reported as ng of Aβ1-x/wet g of brain. For in vitro analysis of Aβ levels, conditioned media from human APP-over-expressing N2a cells were collected and analyzed at a 1:1 dilution using the method described above, and values were rreported as percentage of Aβ1-x secreted relative to control. […]

[3] = system: N2a cell line that stably overexpresses the human wild-type APP-751 transgene; assay: α-CTF by Western blot in N2a cells overexpressing APP-751; conditions: CD40L treatment over time
Description: We have recently identified CD40 on neurons and neuron-like cells (including the N2a neuroblastoma cell line), and have shown that neuronal CD40 is functional, being intimately involved in neuronal development, survival, and maturation (Tan et al., “CD40 is expressed and functional on neuronal cells,” EMBO J. (2002) 21:643-52). Given our in vivo findings, we wished to determine whether CD40L could directly act on neurons to modulate APP processing. An N2a cell line was established that stably overexpresses (by ˜3 fold) the human wild-type APP-751 transgene (Xia et al., “Enhanced production and oligomerizatio of the 42-residue amyloid beta-protein by Chinese hamster ovary cells stably expressing mutant presenilins,” J. Biol. Chem. (1997) 272:7977-82). […] To confirm whether this reduction in α-CTF might be associated with amyloidogenic processing of APP, we measured secreted Aβ in conditioned media. […] Thus CD40L is able to directly promote amyloidogenic APP processing in neurons or neuron-like cells. […] As the vast majority of cases of AD are associated with accumulation of Aβ from a normal APP sequence, the observation that the processing of normal APP can be pushed towards amyloidogenicity by CD40L is of interest. […]
Western blot. […] Densitometric analysis was perfromed using the Fluor-S Multilmager™ with Quantity One™ software (Bio-Rad). […]

[4] = system: N2a cell line that stably overexpresses the human wild-type APP-751 transgene; assay: secreted Aβ in conditioned media of N2a cells overexpressing APP-751; conditions: CD40L treatment over time
Description: We have recently identified CD40 on neurons and neuron-like cells (including the N2a neuroblastoma cell line), and have shown that neuronal CD40 is functional, being intimately involved in neuronal development, survival, and maturation (Tan et al., “CD40 is expressed and functional on neuronal cells,” EMBO J. (2002) 21:643-52). Given our in vivo findings, we wished to determine whether CD40L could directly act on neurons to modulate APP processing. […] To confirm whether this reduction in α-CTF might be associated with amyloidogenic processing of APP, we measured secreted Aβ in conditioned media. […]
ELISA analysis. […] Total Aβ species were detected by acid extraction of brain homogenates in 5 M guanidine buffer (Johnson-Wood et al., “Amyloid precursor protein processing and A beta42 deposition in a transgenic mouse model of Alzheimer disease,” Proc. Natl. Acad. Sci. USA (1997) 94:1550-55), followed by a 1:10 dilution in lysis buffer. Aβ1-40, Aβ1-42, and total Aβ (estimated by summing Aβ1-40 and Aβ1-42 values) were quantified in these samples using the Aβ1-40 and Aβ1-42 enzyme-linked immunosorbent assay (ELISA) kits (QCB) in accordance with the manufacturer's instruction, except that standards were diluted such that the final concentration included 0.5 M guanidine buffer. […]

[5] = 24 hour treatment, 2 μg/mL, relative to heat-inactivated CD40L

For TNF-α [reference compound], the “alterations in APP CTFs” value [1] was “did not observe alterations” and the “alterations in secretion of Aβ species” value [2] was “did not observe alterations”.

In the case of “transforming growth factor-β1: additional control ligand [reference compound]”, the “alterations in APP CTFs” value [1] is reported as “did not observe alterations” and the “alterations in secretion of Aβ species” value [2] is reported as “did not observe alterations”.

B1: CD40L: CD40L protein (CD40 ligation) added to N2a cells at 2 μg/mL (protein, UniProt P29965 113-261, looked up)
CD40 ligand, soluble form: MQKGDQNPQIAAHVISEASSKTTSVLQWAEKGYYTMSNNLVTLENGKQLTVKRQGLYYIYAQVTFCSNREASSQAPFIASLCLKSPGRFERILLRAANTHSSAKPCGQQSIHLGGVFELQPGASVFVNVTDPSQVSHGTGFTSFGLLKL
In the case of B1, the “ratio of APP β-CTF to α-CTF” value ([1]; 2 μg/mL, serum-free conditions, 24 hours, versus heat-inactivated CD40L) is reported as “increased ratio”, the “increase in secreted Aβ1-40 levels” value [2, 5] is reported as about 85% and the “increase in secreted Aβ1-42 levels” value [2, 5] is reported as about 50%. For the same molecule, the “α-CTF by Western blot” value [3] was “time-dependent decrease”, the “secreted Aβ1-40 levels in conditioned media” value [4] was “time-dependent increase” and the “secreted Aβ1-42 levels in conditioned media” value [4] was “time-dependent increase”.

B2: Fas ligand: other TNF ligand superfamily member used as ligand control (protein, UniProt P48023 130-281, looked up)
Tumor necrosis factor ligand …: QIGHPSPPPEKKELRKVAHLTGKSNSRSMPLEWEDTYGIVLLSGVKYKKGGLVINETGLYFVYSKVYFRGQSCNNLPLSHKVYMRNSKYPQDLVMMEGKMMSYCTTGQMWARSSYLGAVFNLTSADHLYVNVSELSLVNFEESQTFFGLYKL
B2 was tested, and the “alterations in APP CTFs” value [1] was “did not observe alterations” and the “alterations in secretion of Aβ species” value [2] was “did not observe alterations”.
